Experimental data: US20190055322A1
Values joined by “and” are separate entries in the source; they are usually repeats but may differ in a detail not shown here. Equal entries are not always repeated.

The binders below were run against PcrV of P. aeruginosa strain PA103 (on TTSS-induced bacteria) (Pseudomonas aeruginosa strain PA103) (assay: cell-based or functional assay).

Row | Binder | % inhibition in P3X63 cytotoxicity assay, extract 1/150
1 | 1E11-40GS-5E02 (VHH) EVQLVESGGGLVQPGGSLRLSCAASGSTRSVNPMAWFRQAPGRQREWVATISRSGYATYADSVKGRFTISGDNAKSSVYLQMNSLKPEDTAVYYCVTGTYWGQGTLVTVSSGGGGSGGGGSGGGGSGGGGSGGGGSGGGGSGGGGSGGGGSEVQLVESGGGLVQPGGSLRLSCAASGITLDSIAICWFRQAPGKEREGVSCSRGSDGSTYYADSVKGRFTISRVNAKNTVYLQMNSLKPEDTAVYYCAAAPSIFYSGGYFPSGMDYWGKGTQVTVSS | 44%
2 | 1E11-40GS-14B10 (VHH) EVQLVESGGGLVQPGGSLRLSCAASGSTRSVNPMAWFRQAPGRQREWVATISRSGYATYADSVKGRFTISGDNAKSSVYLQMNSLKPEDTAVYYCVTGTYWGQGTLVTVSSGGGGSGGGGSGGGGSGGGGSGGGGSGGGGSGGGGSGGGGSEVQLVESGGGLVQPGGSLRLSCAASGRIFSINNMGWYHQAPGKQRELVATITMNGITTYADSVKGRFTISRDNAKNTVYLQMNSLKPEDTAVYYCSCWVRSSGGDPYRDYWGQGTQVTVSS | 52%
3 | 5E02-40GS-1E11 (VHH) EVQLVESGGGLVQPGGSLRLSCAASGITLDSIAICWFRQAPGKEREGVSCSRGSDGSTYYADSVKGRFTISRVNAKNTVYLQMNSLKPEDTAVYYCAAAPSIFYSGGYFPSGMDYWGKGTQVTVSSGGGGSGGGGSGGGGSGGGGSGGGGSGGGGSGGGGSGGGGSEVQLVESGGGLVQPGGSLRLSCAASGSTRSVNPMAWFRQAPGRQREWVATISRSGYATYADSVKGRFTISGDNAKSSVYLQMNSLKPEDTAVYYCVTGTYWGQGTLVTVSS | 60%
4 | 1E11-40GS-4G10 (VHH) EVQLVESGGGLVQPGGSLRLSCAASGSTRSVNPMAWFRQAPGRQREWVATISRSGYATYADSVKGRFTISGDNAKSSVYLQMNSLKPEDTAVYYCVTGTYWGQGTLVTVSSGGGGSGGGGSGGGGSGGGGSGGGGSGGGGSGGGGSGGGGSEVQLVESGGGLVQAGGSLRLSCVISEDGVRNYDMGWFRQAPGKEREFVATINWSGGSTNYADSVKGRFTVSRDNAKNTMYLQMDSLKPEDTAVYYCVAAGFYNNYLRTAPNDWNDWGQGTQVTVSS | 67%
5 | Nanobody 115 (11B09-40GS-13F07) (VHH) EVQLVESGGGLVQAGGSLRLSCAASRLTFNHYNMGWFRQAPGKERERVAEVTWSGDKIYYVDSVKGRFTISRDNTPNPVYLYLQMNSLKPEDTAVYYCATAPRGLPYANGYWGQGTLVTVSSGGGGSGGGGSGGGGSGGGGSGGGGSGGGGSGGGGSGGGGSEVQLVESGGGLVQAGGSLRLSCAASGNTFSTNPMYWYRQAEGKQRELVASISSRGITNYADSVRGRFSISRDNTKDTVYLQMNSLKPEDTAVYYCRLASLSSGTVYWGKGTLVTVSS | 82%
6 | 5E02-40GS-14E10 (VHH) EVQLVESGGGLVQPGGSLRLSCAASGITLDSIAICWFRQAPGKEREGVSCSRGSDGSTYYADSVKGRFTISRVNAKNTVYLQMNSLKPEDTAVYYCAAAPSIFYSGGYFPSGMDYWGKGTQVTVSSGGGGSGGGGSGGGGSGGGGSGGGGSGGGGSGGGGSGGGGSEVQLVESGGGLVQPGGSLRLSCAASGRIFSINTMGWYRQAPGKQRELVAGVTINAITNYADSVKGRFTISRDNAKNTVWLQMNSLKPEDTAVYYCHAWARSSGSAPYSQNWGQGTQVTVSS | 48%

These binders were tested against different PcrV variants and reference strain PAO1 (23 PcrV sequence variants, GST-PcrV-His6) (assay: not given).

Row | Binder | EC50
7 | Nanobody 256 (13F07-40GS-5H01) (VHH) EVQLVESGGGLVQAGGSLRLSCAASGNTFSTNPMYWYRQAEGKQRELVASISSRGITNYADSVRGRFSISRDNTKDTVYLQMNSLKPEDTAVYYCRLASLSSGTVYWGKGTLVTVSSGGGGSGGGGSGGGGSGGGGSGGGGSGGGGSGGGGSGGGGSEVQLVESGGGLVQPGGSLRLSCAASGSTLDYYAIGWFRQAPGKEREGVSCTSNSGSTYYGGSVKGRFTASRDNAKNTVYLQMNSLRPEDTAVYYCVATIGCATLGGTLDVQRYYYRGQGTLVTVSS | 70 pM and 100 pM
